In the supplement of paper PMC10567573 one finds protein stability index data, which are given here for 94 variants.

B1: AUP1 (parent)
chain: FCASTRLPPTPLLLFPEEEATNGR
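Further: lentivirally expressed fusions sorted by FACS into six bins by GFP to DsRed ratio, PSI derived from sequencing read proportions per bin multiplied by bin number.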

The variants in this data set derive from B1. In words: protein stability index of a GFP-peptide fusion (GPS, HEK-293T) (PSI 1-6); higher = more stable. The following applies: c terminus: a fixed tail appended.
Turning to FCASTRLPPTPLLLFPEEEYTNGR, the protein stability index is 2.48. For the variant FCASTRLPPTPLLLFPEEEPTNGR, the protein stability index is 2.75. As for FCASTRLPPTPLLLFPEEEGTNGR, the protein stability index came to 2.79.

For the variant FCASTRLPPTPLLLSPEEEATNGR, the protein stability index came out at 3.45. Regarding FCASTRLPPTPLLLQPEEEATNGR, the protein stability index was found to be 3.35. The figure for FCASTRLPPTPLLLDPEEEATNGR is 3.62; for FCASTRLPPTPLLLLPEEEATNGR it is 3.44; for FCASTRLPPTPLLLTPEEEATNGR it is 3.74. As for FCASTRLPPTPLLLVPEEEATNGR, the protein stability index was found to be 3.1. For FCASTRLPPTPLLLGPEEEATNGR, the protein stability index worked out at 3.24. The figure for FCASTRLPPTPLLLAPEEEATNGR is 2.93; for PCASTRLPPTPLLLFPEEEATNGR it is 4.53. In the case of GCASTRLPPTPLLLFPEEEATNGR, the protein stability index came out at 4.27. As for WCASTRLPPTPLLLFPEEEATNGR, the protein stability index came to 3.74. As for VCASTRLPPTPLLLFPEEEATNGR, the protein stability index stood at 4.27. Consider FCASTRLPPTPLLCFPEEEATNGR, for which the protein stability index is 2.4.

With FCASTRLPPTPLLSFPEEEATNGR, the protein stability index came to 3.44.

As to FCASTRLPPTPLLWFPEEEATNGR, the protein stability index was 1.38.

For the variant FCASTRLPPTPLLEFPEEEATNGR, the protein stability index was 3.74. On to FCASTRLPPTPLLMFPEEEATNGR, for which the protein stability index amounted to 3.29. Consider FCASTRLPPTPLLPFPEEEATNGR, for which the protein stability index turned out to be 3.48. Then FCASTRLPPTPLLKFPEEEATNGR, with 2.8. FCASTRLPPTQLLLFPEEEATNGR: the protein stability index is 2.58. Then FCASTRLPPTKLLLFPEEEATNGR, with 2.39; and FCASTRLPPTALLLFPEEEATNGR, with 2.39. As for FCASTRLPPTHLLLFPEEEATNGR, the protein stability index turned out to be 2.33. Then FCASTRLPPTLLLLFPEEEATNGR, with 1.63; and FCASTRLPPTWLLLFPEEEATNGR, with 2.14. Take FCASTRLLPTPLLLFPEEEATNGR: the protein stability index is 1.96. Take FCASTRLYPTPLLLFPEEEATNGR: the protein stability index came out at 1.9. The figure for FCASTRLAPTPLLLFPEEEATNGR is 2.48; for FCASTRLSPTPLLLFPEEEATNGR it is 2.84; for FCASTRLCPTPLLLFPEEEATNGR it is 2.08. Take FCASTRLDPTPLLLFPEEEATNGR: the protein stability index was determined as 2.92.

As to FCASTRLHPTPLLLFPEEEATNGR, the protein stability index stood at 2.33. Regarding FCASTRLPPTPLLLFGEEEATNGR, the protein stability index was 2.69. For the variant FCASTRLPPTPLLLFREEEATNGR, the protein stability index stood at 2.19. With FCASTRLPPTPLLLFEEEEATNGR, the protein stability index was 3.48. For the variant FCASTRLPPTPLLLFIEEEATNGR, the protein stability index worked out at 1.62. Consider FCASTRLPPTPLLLFDEEEATNGR, for which the protein stability index came to 3.05. As for FCASTRLPPTPLLLFKEEEATNGR, the protein stability index amounted to 2.26.

Take FCASTRLPPTPLLLFNEEEATNGR: the protein stability index came to 2.9. As to FCASTRLPPTPLLLFSEEEATNGR, the protein stability index stood at 2.4. FCASTRLPPTPLLLFQEEEATNGR: the protein stability index was found to be 2.6.

Take FCASTRLPPTPLLLFFEEEATNGR: the protein stability index worked out at 2.24. The figure for FCASTRLPPTPLLLFVEEEATNGR is 1.8. FCASTNLPPTPLLLFPEEEATNGR: the protein stability index is 3.5. In the case of FCASTILPPTPLLLFPEEEATNGR, the protein stability index was found to be 2.46.

On to FCASTMLPPTPLLLFPEEEATNGR, for which the protein stability index came out at 3.27. For the variant FCASTLLPPTPLLLFPEEEATNGR, the protein stability index worked out at 2.73.

As to FCASTSLPPTPLLLFPEEEATNGR, the protein stability index was determined as 3.29. Then FCASTELPPTPLLLFPEEEATNGR, with 4.11. As for FCASTKLPPTPLLLFPEEEATNGR, the protein stability index came out at 3.09. Then FCASTHLPPTPLLLFPEEEATNGR, with 3.25. Regarding FCASTRLPPTPLLLFPEEEATNKR, the protein stability index amounted to 2.62. For FCASTRLPPTPLLLFPEEEATNLR, the protein stability index stood at 2.67. As to FCASTRLPPTPLLLFPEEEATNCR, the protein stability index amounted to 2.65.

Take FCASTRLPPTPLLLFPEEEATNRR: the protein stability index amounted to 2.59. The figure for FCASTRLPPTPLLLFPEEEATNNR is 2.97; for FCASTRLPPTPLLLFPEEEATNYR it is 2.32.

With FCASTRLPPTPLLLFPEEEATNIR, the protein stability index was 2.19. The figure for FCASTRLPPTPLLLFPEEEATNER is 3.33; for FCASTRLPPTPLLLFPEEEATNGH it is 2.76; for FCASTRLPPTPLLLFPEEEATNGY it is 1.88.

Regarding FCASTRLPPTPLLLFPEEEATNGE, the protein stability index is 3.4.

For FCASTRLPPTPLLLFPEEEATNGM, the protein stability index worked out at 2.38.

For FCASTRLPPTPLLLFPEEEATNGI, the protein stability index stood at 2.46.

In the case of FCASTRLPPTPLLLFPEEEATNGD, the protein stability index came out at 3.3. As to FCASTRLPPTPLLLFPEEEATNGF, the protein stability index amounted to 2.39. As to FCASTRLPPTPLLLFPEEEATNGQ, the protein stability index is 2.98. Take FCASTRLPPTPLLLFPEEEATNGK: the protein stability index stood at 3.12. FCSSTRLPPTPLLLFPEEEATNGR: the protein stability index came out at 2.44.

FCWSTRLPPTPLLLFPEEEATNGR: the protein stability index is 1.89. Consider FCLSTRLPPTPLLLFPEEEATNGR, for which the protein stability index amounted to 3.27. The figure for FCGSTRLPPTPLLLFPEEEATNGR is 2.36; for FCISTRLPPTPLLLFPEEEATNGR it is 2.46.

Regarding FCDSTRLPPTPLLLFPEEEATNGR, the protein stability index was 3.33. Consider FCVSTRLPPTPLLLFPEEEATNGR, for which the protein stability index is 2.76. Take FCESTRLPPTPLLLFPEEEATNGR: the protein stability index worked out at 3.67. Consider FCTSTRLPPTPLLLFPEEEATNGR, for which the protein stability index worked out at 2.84. The figure for FCASTRLPPWPLLLFPEEEATNGR is 2.33; for FCASTRLPPSPLLLFPEEEATNGR it is 2.8.

For FCASTRLPPNPLLLFPEEEATNGR, the protein stability index worked out at 2.92. FCASTRLPPMPLLLFPEEEATNGR: the protein stability index was determined as 2.28.

Take FCASTRLPPVPLLLFPEEEATNGR: the protein stability index amounted to 2.39. In the case of FCASTRLPPFPLLLFPEEEATNGR, the protein stability index worked out at 1.32. Then FCASTRLPPHPLLLFPEEEATNGR, with 1.68.

Take FCASTRLPPKPLLLFPEEEATNGR: the protein stability index came out at 3.04. Then FCASTRLPPRPLLLFPEEEATNGR, with 2.87; and FCASTRLPPQPLLLFPEEEATNGR, with 3.13; and FCASTRLPPAPLLLFPEEEATNGR, with 3.13. For FCASTRMPPTPLLLFPEEEATNGR, the protein stability index worked out at 3. Take FCASTREPPTPLLLFPEEEATNGR: the protein stability index came to 3.24. Regarding FCASTRWPPTPLLLFPEEEATNGR, the protein stability index came out at 1.51.
